The source of these data is paper PMC11208920, “The binding of LARP6 and DNAAF6 in biomolecular condensates influences ciliogenesis of multiciliated cells”.

Numbering of substitutions follows the chain as printed.

Series [1] deals with T1, rLARP6 (recombinant human LARP6, LAM+RRM only) (Homo sapiens, UniProt Q9BRS8 73-303).
T1 sequence: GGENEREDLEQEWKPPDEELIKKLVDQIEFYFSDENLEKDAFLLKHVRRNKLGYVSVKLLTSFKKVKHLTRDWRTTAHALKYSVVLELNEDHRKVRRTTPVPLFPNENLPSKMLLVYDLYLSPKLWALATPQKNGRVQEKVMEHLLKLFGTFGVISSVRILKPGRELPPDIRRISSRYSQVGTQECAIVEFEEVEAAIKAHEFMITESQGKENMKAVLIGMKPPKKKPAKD
Kind of series: EMSA; 5 mM Mg2+; monomer and dimer complexes; 10 mM Tris pH 7.5, 100 mM KCl, 5 mM MgCl2, room temperature, 10 min; 6% native gel, SYBR Gold. Particulars: protein: recombinant. On the technique in general: In EMSA bound probe runs differently from free probe, usually more slowly.

The target of series [2] is T1, rLARP6 (recombinant human LARP6, …). Kind of series: EMSA; 5 mM Mg2+; 10 mM Tris pH 7.5, 100 mM KCl, 5 mM MgCl2, room temperature, 10 min; 6% native gel, SYBR Gold. The following applies: protein: recombinant; label: SYBR Gold stain.

B1: xTUBA1CL RNA probe (ssRNA)
RNA: GAGGGAGAAGAAUAUUAAAUAAUAAAUCAAAAGCUUCACAAUAAUACCUGCAGAUUUUGUUUGAAAUAAUAAUUUUGAAUAAAUACGUUUUUAUCUUGUA
Turning to B1, in series [1] (label: SYBR Gold stain (Results text says radiolabeled)), the binding result was “binds”.

B2: hCOL1A2 WT RNA (structured_RNA)
RNA: CCACAAAGAGUCUACAUGUCUAGGGUCUAGACAUGUUCAGCUUUGUGG
With B2, the binding result in series [1] (label: SYBR Gold stain) is on record as “binds”.

B3: hCOL1A2 MUT RNA (structured_RNA)
RNA: B2 RNA with A9U, U11A, C38A, A39U, G40U
With B3, in series [2], the binding result is “no binding”.
